Source: patent publication US20050079516A1, “Chromosome stability assay” (The Board of Trustees of the University of Illinois, priority 2003, published 2005)

How the values were obtained:
chromatin strands = assay: degradation of chromatin strands with other endonucleases; format: biochemical; conditions: isolated chromatin strands
[1] = test system: chromatin strands from normal human microvascular endothelial cells; assay: proteinase K treatment of isolated chromatin strands; format: biochemical; conditions: normal endothelial cell chromatin; proteinase K 5 mg/ml, 5 minutes
Method: (§1) FIGS. 2D and 2E illustrate the effects of treatment of chromatin strands from normal human microvascular endothelial cells and invasive HT1080 fibrosarcoma cells with proteinase K under the conditions described above except that proteinase K (5 mg/ml) was substituted for ALU and the incubation time was reduced from 60 minutes to 5 minutes.

[2] = test system: chromatin strands from invasive HT1080 fibrosarcoma cells; assay: as above; format: biochemical, human; conditions: proteinase K 5 mg/ml, 5 minutes
Method: as §1

| Molecule | correlation of chromatin cleavage pattern with invasive potential of the cell (chromatin strands) | chromatin dispersion (FIGS. 2D, 2E) [1] | chromatin dispersion (FIGS. 2D, 2E) [2] |
| --- | --- | --- | --- |
| RNase A: nuclease (protein, UniProt P61823 27-150, looked up) Ribonuclease pancreatic: KETAAAKFERQHMDSSTSAASSSNYCNQMMKSRNLTKDRCKPVNTFVHESLADVQAVCSQKNVACKNGQTNCYQSYSTMSITDCRETGSSKYPNCAYKTTQANKHIIVACEGNPYVPVHFDASV | does not exhibit chromatin cleavage patterns that correlate with the invasive potential |  |  |
| proteinase K: protease proteinase K, chromatin modifying agent (protein, UniProt P06873 106-384, looked up) Proteinase K: AAQTNAPWGLARISSTSPGTSTYYYDESAGQGSCVYVIDTGIEASHPEFEGRAQMVKTYYYSSRDGNGHGTHCAGTVGSRTYGVAKKTQLFGVKVLDDNGSGQYSTIIAGMDFVASDKNNRNCPKGVVASLSLGGGYSSSVNSAAARLQSSGVMVAVAAGNNNADARNYSPASEPSVCTVGASDRYDRRSSFSNYGSVLDIFGPGTSILSTWIGGSTRSISGTSMATPHVAGLAAYLMTLGKTTAASACRYIADTANKGDLSNIPFGTVNLLAYNNYQA |  | remained largely intact | extensively dispersed |
